B1: Ketol-acid reductoisomerase from Sulfolobus acidocaldarius (Sac-KARI), His-tagged recombinant (enzyme)
chain: MAKIYTDKDVSLDVIKEKRVAVLGYGSQGRAWALNLRDSGIKVSVGLEREGNSWKQAENDGFKPLRTEEAVRNSDIIIFLLPDMIQRTVYLERVKPYLKEGMDLVFAHGFNIHYRLIEPPSNVDVYMIAPKAPGPIVREYFAKGGGVPALVATYQDHSGKALQKALAVAKAIGATRAGVIETTFKEETETDLFGEQVDLVGGVMQLMRYAFQTLVEAGYQPEVAYFETINEMKLIVDLVYEKGFSGMLTAVSDTAKYGGMTVGKMVIDESVKERMKKALDNIRSGKFAEKWVEEYGKGANTIKEGMKEVDNSTEEKVGRSLRDIILRGKPKS
notes: pET-21a cloned through NdeI/XhoI with the His-tag coding region kept would give a C-terminal His6 tag (surmised); No tag cleavage is described; also called ilvc1559; source: E. coli BL21 (DE3), purified (heating at 65 °C for 30 min, Ni-NTA, gel filtration)
B2: SeMet-substituted Sac-KARI (ketol-acid reductoisomerase from Sulfolobus acidocaldarius) (enzyme)
chain: B1 chain
modifications: selenomethionine in place of methionine (SeMet-substituted)
notes: Ketol-acid reductoisomerase (class I KARI) of Sulfolobus acidocaldarius, gene ilvc1559, same pET21a-ilvc construct as m1, expressed with selenomethionine; also called SeMet-containing Sac-KARI; source: Overnight Express Autoinduction System 2 (Novagen) with L-methionine and SeMet; purified as the native protein (heating, Ni-NTA, gel filtration)

Experiments:
[1] = target: the molecule itself; test: SEC; gel filtration on HiLoad 16/600 Superdex 200 pg, in the presence of 2 mM Mg2+
[2] = target: the molecule itself; test: crystal structure; X-ray, 1.75 Å, space group P212121, one dimer in the asymmetric unit; SeMet crystals from 0.2 M Li2SO4 and 20% PEG 3350, 25 °C

Row | Protein | stoichiometry N [1] | binding result [2]
1 | B1 | 2 | –
2 | B2 | – | binds

— paper PMC5940873, “NADH/NADPH bi-cofactor-utilizing and thermoactive ketol-acid reductoisomerase from Sulfolobus acidocaldarius” (Scientific Reports, 2018)
